The target in the assay is mouse α4 integrin (mouse) (UniProt Q00651). The assay can be described thus: cell-based or functional assay.

Among the data in US20080152653A1 are inhibition of growth of B16-BL6 cells (Cell Counting Kit 8, O.D. 450), 10 µg/ml antibody values, retold here.

Chain of UniProt Q00651 (Q00651 41-1039, form in doubt, chain 1 of 2): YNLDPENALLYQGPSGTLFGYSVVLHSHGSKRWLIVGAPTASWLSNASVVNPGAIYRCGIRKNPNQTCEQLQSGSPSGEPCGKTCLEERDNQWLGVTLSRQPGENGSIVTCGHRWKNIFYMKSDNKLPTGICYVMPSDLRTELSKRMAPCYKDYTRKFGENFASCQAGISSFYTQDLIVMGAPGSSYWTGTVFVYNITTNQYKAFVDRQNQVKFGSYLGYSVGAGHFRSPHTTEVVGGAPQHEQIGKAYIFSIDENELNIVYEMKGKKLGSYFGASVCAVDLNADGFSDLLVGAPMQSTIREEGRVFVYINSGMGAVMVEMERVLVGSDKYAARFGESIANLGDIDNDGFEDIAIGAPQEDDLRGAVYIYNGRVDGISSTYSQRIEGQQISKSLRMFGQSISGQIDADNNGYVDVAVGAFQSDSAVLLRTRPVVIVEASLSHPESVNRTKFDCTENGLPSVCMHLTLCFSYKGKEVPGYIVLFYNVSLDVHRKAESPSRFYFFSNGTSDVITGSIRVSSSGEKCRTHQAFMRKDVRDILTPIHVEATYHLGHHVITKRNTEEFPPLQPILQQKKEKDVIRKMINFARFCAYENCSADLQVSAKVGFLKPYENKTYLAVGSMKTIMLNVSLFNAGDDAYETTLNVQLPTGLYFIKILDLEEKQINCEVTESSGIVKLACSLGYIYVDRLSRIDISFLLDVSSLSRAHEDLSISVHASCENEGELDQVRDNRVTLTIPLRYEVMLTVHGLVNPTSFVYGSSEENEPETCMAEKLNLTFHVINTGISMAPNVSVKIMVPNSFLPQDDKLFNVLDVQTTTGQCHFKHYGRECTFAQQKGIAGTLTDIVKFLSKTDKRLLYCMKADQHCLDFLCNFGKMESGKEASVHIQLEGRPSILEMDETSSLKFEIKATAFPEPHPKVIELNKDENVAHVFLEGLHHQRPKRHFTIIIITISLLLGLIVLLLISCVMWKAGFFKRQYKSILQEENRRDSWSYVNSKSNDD
Chain of UniProt Q00651 (chain, as listed by the source, form in doubt, chain 2 of 2): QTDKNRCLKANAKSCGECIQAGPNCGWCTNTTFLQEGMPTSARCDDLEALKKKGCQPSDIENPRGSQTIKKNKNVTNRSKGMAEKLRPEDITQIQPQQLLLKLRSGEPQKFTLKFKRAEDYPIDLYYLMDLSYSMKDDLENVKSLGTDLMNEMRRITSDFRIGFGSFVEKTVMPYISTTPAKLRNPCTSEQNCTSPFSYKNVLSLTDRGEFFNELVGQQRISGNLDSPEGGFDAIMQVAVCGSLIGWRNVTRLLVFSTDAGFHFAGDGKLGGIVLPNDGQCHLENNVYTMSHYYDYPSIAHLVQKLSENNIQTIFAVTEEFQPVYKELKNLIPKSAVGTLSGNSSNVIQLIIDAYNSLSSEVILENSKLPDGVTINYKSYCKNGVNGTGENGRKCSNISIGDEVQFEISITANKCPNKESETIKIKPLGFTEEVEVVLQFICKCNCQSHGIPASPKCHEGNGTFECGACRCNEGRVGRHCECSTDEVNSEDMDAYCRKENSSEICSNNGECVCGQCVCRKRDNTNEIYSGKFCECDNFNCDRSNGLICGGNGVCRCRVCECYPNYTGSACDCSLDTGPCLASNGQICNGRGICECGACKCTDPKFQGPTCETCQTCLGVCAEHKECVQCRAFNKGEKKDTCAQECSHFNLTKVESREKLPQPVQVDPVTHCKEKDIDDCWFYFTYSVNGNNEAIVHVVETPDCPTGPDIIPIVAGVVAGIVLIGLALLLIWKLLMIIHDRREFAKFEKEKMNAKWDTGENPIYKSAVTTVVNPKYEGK

In turn, “anti-α4 integrin antibody (clone R1-2) (Pharmingen)” showed an inhibition of growth of B16-BL6 cells (Cell Counting Kit 8, O.D. 450), 10 µg/ml antibody of 20%.
